The values that follow come from patent publication US20190367606A1 (CENTRE FOR DRUG RESEARCH AND DEVELOPMENT, published 2019).

The target in test [1] is T1, human podocalyxin (human, UniProt O00592 23-558).
T1 construct: also called hPodo; hPodocalyxin
T1 sequence: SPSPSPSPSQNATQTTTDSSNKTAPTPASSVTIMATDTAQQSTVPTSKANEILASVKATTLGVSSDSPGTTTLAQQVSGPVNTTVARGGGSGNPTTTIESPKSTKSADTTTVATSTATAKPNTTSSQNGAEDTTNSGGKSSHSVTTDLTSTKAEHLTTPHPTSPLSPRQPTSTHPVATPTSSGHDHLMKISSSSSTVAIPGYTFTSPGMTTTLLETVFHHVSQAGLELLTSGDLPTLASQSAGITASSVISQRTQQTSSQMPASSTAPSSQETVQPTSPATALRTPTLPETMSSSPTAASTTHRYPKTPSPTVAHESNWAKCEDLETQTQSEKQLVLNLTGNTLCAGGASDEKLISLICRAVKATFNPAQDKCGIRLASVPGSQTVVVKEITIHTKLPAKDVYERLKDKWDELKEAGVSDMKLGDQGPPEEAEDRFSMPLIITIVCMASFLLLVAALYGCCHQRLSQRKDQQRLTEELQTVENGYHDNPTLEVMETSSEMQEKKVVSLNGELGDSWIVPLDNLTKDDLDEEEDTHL
As to the kind of experiment: cross competition FACS, MDA-MB-231 cells; row antibody unlabelled 25 ug/mL first; competitor (detected): B-Ova 12 5 ug/mL (control).

For test [2], the target named is T1, human podocalyxin. As to the kind of experiment: cross competition FACS, MDA-MB-231 cells; row antibody unlabelled 25 ug/mL first; competitor (detected): biotinylated Rb/Hu Podo83 5 ug/mL.
In test [3] the target is T1, human podocalyxin. As to the kind of experiment: cross competition FACS, MDA-MB-231 cells; row antibody unlabelled 25 ug/mL first; competitor (detected): B-3G2.2 5 ug/mL.
The target in test [4] is T1, human podocalyxin. As to the kind of experiment: cross competition FACS, MDA-MB-231 cells; row antibody unlabelled 25 ug/mL first; competitor (detected): B-mlgG1 5 ug/mL (control).
The target in test [5] is T1, human podocalyxin. As to the kind of experiment: FACS, isotype control, hPodo/MDA (MDA-MB-231 cells transfected with human Podocalyxin cDNA). On the technique in general: Flow cytometry measures light scatter and fluorescence of single cells or particles in a stream.
The target in test [6] is T1, human podocalyxin. As to the kind of experiment: flow cytometry, supernatant Neat, hPodo/MDA-MB-231 transient transfectants. The procedure:
(§1) The following antibodies were transiently transfected in 293HEK cells, transfected cells were incubated for 96 hours, antibody containing supernatant was then serially titrated in FACS sample buffer. The following supernatants were used as test samples:
(§2) MDA transient transfectants were established as essentially described above in Example 1. MDA transient transfectants and MDA-MB-231 cells were seeded in 96-well v bottom plates at 75,000 cells/well. Cells were pelleted by centrifugation at 400 g for 3 min. Supernatant was removed. The cell pellets were resuspended in 20 μl of the antibody or control supernatants. The plate was incubated on ice for 1 hour.
(§3) The cells were washed by adding 200 μl FACS buffer to dilute unbound antibody. The plate was centrifuged at 400 g for 3 min to pellet cells. The supernatant was removed and repeated. The cell pellets were resuspended in 25 μl of either goat anti-Hu IgG Fc-Alexa647, goat anti-Mouse IgG Fc-Alexa647, or goat anti-rabbit IgG0Fc-A647 (2 μg/ml) and 7A.A.D (2.5 μg/ml). The plates were incubated on ice for 0.5 hours. The wash procedure was again repeated 2×. The cell pellets were finally resuspended in 75 μl FACS buffer and read on the HTFC™ Screening System (IntelliCyt Corporation) (3 sec sip, 1.5 up time) and analyzed on the HyperView® software (IntelliCyt Corporation).

The target of test [7] is T1, human podocalyxin. As to the kind of experiment: kinetic exclusion assay (KinExA 3200), MDA-MB-231 cells. The protocol: The concentration dependence of free anti-podocalyxin antibody as a function of MDA-MB231 cell number was determined using a KinExA 3200 instrument (Sapidyne Instruments). Briefly, MDA-MB-231 cells, which express endogenous podocalyxin, were titrated 1:2 from 10×10⁶ cells/mL down 12 steps, and incubated with a fixed concentration of anti-podocalyxin antibodies. MDA-MB231 cells and cell bound antibodies were then isolated by centrifugation. Supernatant containing free, unbound antibody was then transferred to a new tube. The supernatant containing free unbound antibody was passed over the column containing PMMA beads coated with a goat anti-IgG-Fc capture antibody. The amount of free antibody captured on the PMMA beads was then measured using a goat anti-IgG-Fc-A647. This process was repeated for every cell concentration. For each sample assayed a new column of PMMA beads with the goat anti-IgG-Fc capture antibody was packed. The concentration of free antibody over the entire 12 step dilution series was then used to determine the antibody Kd's using the standard Kd template in the KineExA Pro Software (Sapidyne Instruments).
Background: Kinetic exclusion samples the free partner from a solution-phase mixture.

Test [8] addresses T1, human podocalyxin. As to the kind of experiment: flow cytometry titration on 293-6E cells (endogenous podocalyxin), 24 hours at 4 C. The protocol:
(§4) The affinities of huPodo 83 1:1 and huPodo 83 2:1 antibodies were determined against endogenously expressed podocalyxin on 293 HEK cells. 293-6E cells were seeded in 96-well v bottom plates at 100,000 cells/well. The cells were pelleted at 400 g for 3 min and the supernatant was discarded. The cells were placed on ice and antibody 1:3 titrations were prepared using ice cold medium. The cells were resuspended in the prepared antibody titrations at 25 μl/well and incubated at 4° C. for either 24 or 48 hours. 200 μl 1% FBS/PGS (FACS buffer) was added to each well. The cells were pelleted at 400 g for 3 min and supernatant removed. The wash was repeated 2 more times. The cells were resuspended in goat anti-human IgGFc-A647 (2 μg/ml)+2.5 μg/ml 7AAD and incubated on ice for 30 min. The cells were washed as above and resuspended in 50 μl FACS buffer. The cells were analyzed by flow cytometry using the HTFC™ Screening System (IntelliCyt Corporation) (3 sec sip, 1.5 sec up) and the C6 cytometer (Becton Dickenson).

Test [9] deals with T1, human podocalyxin. As to the kind of experiment: flow cytometry, supernatant 1:5, MDA-MB-231 cells. The protocol:
as §1, §2, §3

Test [10] deals with T1, human podocalyxin. As to the kind of experiment: flow cytometry titration on 293-6E cells (endogenous podocalyxin), 48 hours at 4 C. The protocol: as §4
The target in test [11] is T1, human podocalyxin. As to the kind of experiment: flow cytometry, supernatant 2:15 (so in the source), MDA-MB-231 cells. The protocol:
as §1, §2, §3

Test [12] has as its target T1, human podocalyxin. As to the kind of experiment: flow cytometry, supernatant Neat, MDA-MB-231 cells. The procedure:
as §1, §2, §3

Test [13] deals with T1, human podocalyxin. As to the kind of experiment: flow cytometry, supernatant 2:15 (so in the source), hPodo/MDA-MB-231 transient transfectants. The procedure: as §1, §2, §3
Test [14] has as its target T1, human podocalyxin. As to the kind of experiment: flow cytometry, supernatant 1:5, hPodo/MDA-MB-231 transient transfectants. The protocol:
as §1, §2, §3

For test [15], the target named is T1, human podocalyxin. As to the kind of experiment: flow cytometry, supernatant 1:125, MDA-MB-231 cells. The procedure: as §1, §2, §3
The target of test [16] is T1, human podocalyxin. As to the kind of experiment: flow cytometry, supernatant 1:125, hPodo/MDA-MB-231 transient transfectants. The protocol: as §1, §2, §3

Regarding MAB1658 (R&D Systems) (antibody), the FACS signal of the biotinylated antibody named under assay is 476 with human podocalyxin [1], 127000 with human podocalyxin [2], 26900 with human podocalyxin [3] and 431 with human podocalyxin [4].

For the molecule hlgG1 (antibody), the FACS signal (name not given) with human podocalyxin [5] was 544.

Take “3D3 (Santa Cruz Biotechnology sc23904) (antibody)”: the FACS signal of the biotinylated antibody named under assay stood at 450 in the test with human podocalyxin [1], 135000 in the test with human podocalyxin [2], 26400 with human podocalyxin [3] and 419 in the test with human podocalyxin [4].

In the test with human podocalyxin [5], hlgG2 (antibody) yielded an FACS signal (name not given) of 533.

B1: huPodo 83 1:1 (humanized anti-podocalyxin antibody 83, version 1) (antibody, V domains shown)
VH: EVQLVESGGGLVQPGGSLRLSCAASGIDLSSYAMGWVRQAPGKGLEWVSFIYASGSIFYASWAKGRFTISRDNSKNTLYLQMNSLRAEDTAVYYCARAGYYFGGNYDLNLWGQGTLVTVSS
VL: DIQMTQSPSSLSASVGDRVTITCQASQSISNYLAWYQQKPGKVPKLLIYRASTLASGVPSRFSGSGSGTDFTLTISSLQPEDVATYYCQQGYVSNNLDNIFGGGTEVVVK
notes: Cloned into pTT5 plasmids with human IgG heavy chain and human Ig kappa constant regions
Broadly, the Kd is the equilibrium constant for the complex coming apart. The IC50 is the concentration needed to halve the response being measured. A lower IC50 goes with higher potency. For the molecule B1, the “flow cytometry fluorescence (name not given)” value with human podocalyxin [6] was found to be 124000; with human podocalyxin [9], 112000; with human podocalyxin [11] it was 91500; with human podocalyxin [12] it was 125000; with human podocalyxin [13], 157000; in the test with human podocalyxin [14], 128000. Also, the “flow cytometry fluorescence (name not given)” value stood at 39400 in the test with human podocalyxin [15] and 61600 with human podocalyxin [16]. The Kd in the test with human podocalyxin [7] is 0.26 nM. In addition, the IC50 with human podocalyxin [8] came out at 0.0331 µg/mL; with human podocalyxin [10] it was 0.0355 µg/mL.

B2: Rb VH, Vk 1:1 (Podo 83 rabbit VH, human CH1-CH3, human Ck, and humanized Vk) (antibody, V domains shown)
VH: QSLAESGGRLVTPGTPLTLTCTASGIDLSSYAMGWVRQAPGKGLEYIGFIYASGSIFYASWAKGRFTISKTSSTTVDLKMTSLTTEDTATYFCARAGYYFGGNYDLNLWGQGTLVTVSS
VL: DIQMTQSPSSLSASVGDRVTITCQASQSISNYLAWYQQKPGKVPKLLIYRASTLASGVPSRFSGSGSGTDFTLTISSLQPEDVATYYCQQGYVSNNLDNIFGGGTEVVVK
notes: Human CH1-CH3 and human Ck
B2: the “flow cytometry fluorescence (name not given)” value came out at 137000 with human podocalyxin [6]; 115000 with human podocalyxin [9]; 94800 with human podocalyxin [11]; 130000 with human podocalyxin [12]; 76400 with human podocalyxin [13]; 124000 with human podocalyxin [14]. Also, the entries for the “flow cytometry fluorescence (name not given)” value in the test with human podocalyxin [15] and in the test with human podocalyxin [16] were 47700 and 74500, respectively.

B3: huPodo 83 2:1 (humanized anti-podocalyxin antibody 83, version 2) (antibody, V domains shown)
VH: EVQLVESGGGLVQPGGSLRLSCAASGIDLSSYAMGWVRQAPGKGLEWVSFIYASGSIFYASWAKGRFTISRDNSNTLYLQMNSLRAEDTAVYYCARAGYYFGGNYDLNLWGQGTLVTVSS
VL: DIQMTQSPSSLSASVGDRVTITCQASQSISNYLAWYQQKPGKVPKLLIYRASTLASGVPSRFSGSGSGTDFTLTISSLQPEDVATYYCQQGYVSNNLDNIFGGGTEVVVK
notes: as for B1
On to B3, for which the “flow cytometry fluorescence (name not given)” value with human podocalyxin [6] was found to be 139000; in the test with human podocalyxin [9], 105000; with human podocalyxin [11], 67200; with human podocalyxin [12], 123000; in the test with human podocalyxin [13] it was 79400; in the test with human podocalyxin [14], 108000. The “flow cytometry fluorescence (name not given)” value with human podocalyxin [15] turned out to be 22300; with human podocalyxin [16], 37700. For the same molecule, the results for the IC50 in the test with human podocalyxin [8] and with human podocalyxin [10] were 0.0519 µg/mL and 0.052 µg/mL, respectively.

B4: Rabbit Podo 83 (Parental rabbit antibody) (antibody, V domains shown)
VH: QSLAESGGRLVTPGTPLTLTCTASGIDLSSYAMGWVRQAPGKGLEYIGFIYASGSIFYASWAKGRFTISKTSSTTVDLKMTSLTTEDTATYFCARAGYYFGGNYDLNLWGQGTLVTVSS
VL: DIVLTQTPASVEVAVGGTVTIKCQASQSISNYLAWYQRKPGQPPRLLIYRASTLASGVSSRFKGSGSGTQFTLTISGVECADAATYYCQQGYVSNNLDNIFGGGTEVVVK
notes: Rabbit constant regions; also called Rb Podo 83 (Rb Constant Region); rabbit Podo-83 (Ab-1)
For B4, the “flow cytometry fluorescence (name not given)” value in the test with human podocalyxin [6] was 90800; in the test with human podocalyxin [9] it was 129000; with human podocalyxin [11] it was 53700; in the test with human podocalyxin [12], 179000; in the test with human podocalyxin [13], 89700; with human podocalyxin [14] it was 139000. Moreover, the results for the “flow cytometry fluorescence (name not given)” value in the test with human podocalyxin [15] and with human podocalyxin [16] were 15500 and 24100, respectively.

B5: mouse anti-podocalyxin antibody 3G2 (Ab-2) (antibody, V domains shown)
VH: EVQLQQSGPELVKPGASVKMSCKASGYTFTSYVMHWVKQKPGQGLEWIGYIHPYNDGTNYNEKFKGKATLTSDKSSNTAYMELSSLTSEDSAVYYCARSWDWYFDVWGAGTTVTVSS
VL: QIVLTQSPAIMSASPGEKVTMTCSANSNVRYIHWHQQKSGTSPKRWIYDTSKLSSGVPARFSGSGSGTSYSLTISNMEAEDAATYYCQQWISNPLTFGAGTKLELK
notes: also called 3G2.2; Podo-3G2.2
For the molecule B5, the Kd with human podocalyxin [7] was 3.34 nM.
